According to article PMC6318328, “Structural insights into trans-histone regulation of H3K4 methylation by unique histone H4 binding of MLL3/4” (Nature Communications, 2019):

B1: MLL4_(ePHD6)_(1475–1564) (domain or fragment, human, UniProt O14686 1475-1564, looked up)
chain: VSCMQCGAASPGFHCEWQNSYTHCGPCASLVTCPICHAPYVEEDLLIQCRHCERWMHAGCESLFTEDDVEQAADEGFDCVSCQPYVVKPV
notes: MLL4 (KMT2D, ALR), human, residues 1475–1564: the zinc finger before PHD6 and the sixth PHD domain; also called extended PHD6 domain of MLL4; source: E. coli BL21 (DE3) Codon plus RIL, purified (Ni-NTA, thrombin, HiTrap Q, Superdex75); not shown: GST, N-terminal, cleaved; His tag, N-terminal, cleaved

Assays:
[1] = biological target: the molecule itself; assay: SEC; gel-filtration profiles of the purified domains (Supplementary Fig. 3)
MLL3_(ePHD6)_(1055–1144) = biological target: T1, MLL3_(ePHD6)_(1055–1144) (human, UniProt Q8NEZ4 1055-1144); assay: ITC; peptide (1–2 mM) in the syringe injected into protein (50–100 μM) in the cell; 25 °C; 20 mM Tris pH 7.5, 150 mM NaCl; single-site binding model; details: both partners purified
T1 construct: MLL3 (KMT2C), human, residues 1055–1144: the zinc finger before PHD6 and the sixth PHD domain; Monomer in solution by gel filtration; the dimer in the crystal is put down to crystal packing; also called extended PHD6 domain of MLL3; source: E. coli BL21 (DE3) Codon plus RIL, purified (Ni-NTA, thrombin, HiTrap Q, Superdex75); not shown: GST, N-terminal, cleaved; His tag, N-terminal, cleaved
T1 sequence (looked up): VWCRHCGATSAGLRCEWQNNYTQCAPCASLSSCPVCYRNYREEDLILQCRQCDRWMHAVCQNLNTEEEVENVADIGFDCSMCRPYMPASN

MLL4_(ePHD6)_(1475–1564) = biological target: B1; assay: as above; details: both partners purified
MLL3_(ePHD6)_(1075–1144) = biological target: T2, MLL3_(ePHD6)_(1075–1144) (human, UniProt Q8NEZ4 1075-1144); assay: as above; details: both partners purified
T2 construct: MLL3 (KMT2C), human, residues 1075–1144; also called MLL3_ePHD6, residues 1075–1144; source: E. coli BL21 (DE3) Codon plus RIL, purified (Ni-NTA, thrombin, HiTrap Q, Superdex75); not shown: GST, N-terminal, cleaved; His tag, N-terminal, cleaved
T2 sequence (looked up): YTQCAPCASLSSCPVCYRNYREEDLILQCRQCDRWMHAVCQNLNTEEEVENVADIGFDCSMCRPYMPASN

[2] = biological target: T3, MLL3_(PHD5-6)_(1008–1144) (human, UniProt Q8NEZ4 1008-1144); assay: as above; details: both partners purified
T3 construct: MLL3 (KMT2C), human, residues 1008–1144; also called PHD5–6 of MLL3; source: E. coli BL21 (DE3) Codon plus RIL, purified (Ni-NTA, thrombin, HiTrap Q, Superdex75); not shown: GST, N-terminal, cleaved; His tag, N-terminal, cleaved
T3 sequence (looked up): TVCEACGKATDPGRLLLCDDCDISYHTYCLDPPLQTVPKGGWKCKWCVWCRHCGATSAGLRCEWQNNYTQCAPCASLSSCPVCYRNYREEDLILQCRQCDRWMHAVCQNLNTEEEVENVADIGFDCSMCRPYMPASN

MLL4_(ePHD6)_(1495–1564) = biological target: T4, MLL4_(ePHD6)_(1495–1564) (human, UniProt O14686 1495-1564); assay: as above; details: both partners purified
T4 construct: MLL4 (KMT2D), human, residues 1495–1564; also called MLL4_ePHD6, residues 1495–1564; source: E. coli BL21 (DE3) Codon plus RIL, purified (Ni-NTA, thrombin, HiTrap Q, Superdex75); not shown: GST, N-terminal, cleaved; His tag, N-terminal, cleaved

| Binder | stoichiometry N [1] | Kd (MLL3_(ePHD6)_(1055–1144)) [µM] | Kd (MLL4_(ePHD6)_(1475–1564)) [µM] | Kd (MLL3_(ePHD6)_(1075–1144)) [µM] | Kd [2] [µM] | Kd (MLL4_(ePHD6)_(1495–1564)) [µM] |
| --- | --- | --- | --- | --- | --- | --- |
| B1 | 2 | – | – | – | – | – |
| MLL4_(PHD6)_(1505–1564) (domain or fragment, human, UniProt O14686 1505-1564, looked up, MLL4 (KMT2D), human, residues 1505–1564 (sixth PHD domain alone); also called PHD6 domain of MLL4; source: E. coli BL21 (DE3) Codon plus RIL, purified (Ni-NTA, thrombin, HiTrap Q, Superdex75); not shown: GST, N-terminal, cleaved; His tag, N-terminal, cleaved) VTCPICHAPYVEEDLLIQCRHCERWMHAGCESLFTEDDVEQAADEGFDCVSCQPYVVKPV | 2 | – | – | – | – | – |
| GKGGAKRHRKV (peptide, UniProt P62805 12-22, looked up, histone H4, residues 11–21; also called H4H18 peptide; source: synthetic peptide (Peptide 2.0 Inc.)) [histone H4 peptide H4_(11–21)] | – | 35 | 52 | 31 | 83 | 48 |
